Positions count from the first letter of the chain named.
Assays:
murine IL-11 [1] = target: T1, murine IL-11 (mouse, UniProt P47873 22-199); experiment: Di-complex ELISA, murine IL11RA-Fc binding to immobilized mIL-11, competition
T1 construct: Invigate recombinant protein; biotinylated when immobilized in the Di-complex ELISA; also called mIL11; mIL-11
T1 sequence: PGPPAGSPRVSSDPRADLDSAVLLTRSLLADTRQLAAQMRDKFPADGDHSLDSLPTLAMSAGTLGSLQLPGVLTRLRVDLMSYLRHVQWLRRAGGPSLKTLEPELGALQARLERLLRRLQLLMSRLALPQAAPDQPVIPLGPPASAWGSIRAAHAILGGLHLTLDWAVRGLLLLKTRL
Description: In the Di-complex ELISA format anti IL-11 antibodies are tested for the ability to interfere with the formation of complexes consisting of immobilized murine IL-11 (Invigate, e.g., lot #C210819-09) or human IL-11 (Invigate, e.g., lot #C121021-19), and murine IL11RA-Fc fusion proteins or canine IL11RA-human-Fc fusion protein (FIG. 17a, b).
Bispecific antibodies were subjected to the experimental assay procedure described in Example 18 and IC50 [M], respectively efficacy (%) were calculated accordingly.

human IL-11 = target: T2, human IL-11 (human, UniProt P20809 22-199); experiment: Di-complex ELISA, competitor canine IL11RA-Fc on coated IL-11; Di-complex ELISA (blocking of IL-11/IL-11Ra), weak partial inhibition, efficacy 17.4%
T2 construct: Invigate, e.g. lot #C121021-19; biotinylated where coated in the ELISA; also called hIL-11; hIL11
T2 sequence: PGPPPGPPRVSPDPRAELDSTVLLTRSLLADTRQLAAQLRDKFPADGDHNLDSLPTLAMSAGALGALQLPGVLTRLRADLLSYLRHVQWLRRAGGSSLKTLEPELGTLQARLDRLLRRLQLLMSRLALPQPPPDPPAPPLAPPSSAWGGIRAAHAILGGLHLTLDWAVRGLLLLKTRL
Description: The assay is performed using streptavidin coated microtiter plates (Greiner bio-one, #781997). In a first step, 10 nM biotinylated mouse IL-11 (Invigate, Germany, e.g., lot #C210819-09) or human IL-11 (Invigate, Germany, e.g., lot #C121021-19) is coated in 25 μl PBS on the plate at 4° C. overnight. Next day, the plate is washed three times with 50 μl PBST and then blocked with 50 μl SmartBlock (Candor, #113125) for one hour at room temperature (RT). After additional three washes with PBST, 25 μl of a mixture of the murine anti IL-11 antibody and recombinant canine IL11RA-Fc fusion protein (Sino Biological, #70078-D02H) in PBS-T, 10% Smartblock are added simultaneously to the plate and incubated for one hour at RT. […] After three additional washes with PBS-T, 25 μl anti-human-POD (Sigma, #A0170) in PBS-T, 10% Smartblock is added and incubated for 1 hour at RT. After a final three washes with PBS-T, 25 μl AmplexRed (Fisher Scientific, A12222), 1/1000 in PBS, 0,003% H₂O₂, is added as substrate and incubated for 15 min at RT in the dark. Then, the fluorescence is measured with a plate reader at 535/595 nm. […] Efficacy was calculated as [(signal measured at lowest antibody concentration−signal measured at the highest antibody concentration)×100] divided by (signal measured at lowest antibody concentration−signal measured in the absence of IL11Ra). […]

cynomolgus IL-11 = target: T3, cynomolgus IL-11 (cynomolgus, UniProt P20808 22-199); experiment: SPR (Biacore), 25 C, antibody captured via anti-Fc, IL-11 as analyte
T3 construct: Invigate recombinant protein; also called cIL11; Macaca IL-11
T3 sequence: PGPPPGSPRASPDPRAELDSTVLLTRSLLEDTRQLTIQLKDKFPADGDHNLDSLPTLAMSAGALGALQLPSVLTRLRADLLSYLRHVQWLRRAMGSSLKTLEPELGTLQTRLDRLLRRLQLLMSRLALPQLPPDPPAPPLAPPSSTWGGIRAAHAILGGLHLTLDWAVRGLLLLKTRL
Description: (§1) To assess the binding kinetics and affinity of anti-IL-11 bispecific antibodies as well as their species cross-reactivity profile, binding assays were conducted using surface plasmon resonance (SPR). […] Antibodies were captured either via anti-human Fc IgGs (“Human antibody capture kit”, Order No. BR100839, Cytiva) or via anti-mouse Fc IgGs (“Mouse antibody capture kit, Order No. BR100383, Cytiva) covalently amine coupled to a Series S CM5 sensor chip (Cytiva) depending on the isotype. The amine coupling was carried out according to the manufacturer's instructions using 1-ethyl-3-(3-dimethylaminopropyl) carbodiimide hydrochloride (EDC), N-hydroxysuccinimide (NHS) and ethanolamine HCl, pH 8.5 (“Amine Coupling Kit” BR-1000-50, Cytiva.). Human, mouse, cynomolgus or rat IL-11 was used as analyte at several dilutions within the concentration range from 0.05-200 nM. For binding assays with only one concentration 200 nM IL-11 was used. The sensor surface was regenerated with glycine pH 1.7 after each antigen injection. Obtained sensorgrams were double referenced (subtraction of reference flow cell signal and buffer injection) and were fitted to a 1:1 Langmuir binding model to derive kinetic data using the Biacore T200 Evaluation software or the Biacore Insight software.
(§2) If no value is reported, there was either no binding or very low binding and multiphasic binding behavior.

rat IL-11 = target: T4, rat IL-11 (rat, UniProt Q99MF5 22-199); experiment: as above
T4 construct: Invigate recombinant protein; also called rIL11
T4 sequence: T1 sequence with S50N, L84F, G94A, V137A, I138V
Description: as §1, §2

murine IL-11 [2] = target: T1, murine IL-11; experiment: as above
Description: as §1, §2

B1: TPP-29697 (bispecific antibody, IgG1)
chain 1: QVQLVESGGGVVQPGRSLRLSCAASGFTFSHYDMHWVRQAPGKGLEWVAVISYHGSVKFYADSVKGRFTISRDNSKNTLYLQMNSLRAEDTAVYYCARTPGFHFDYWGQGTLVTVSSGGGGSGGGGSGGGGSQSVLTQPPSASGTPGQRVTISCSGSSSNIGSNYVSWYQQLPGTAPKLLIYYDDLRPSGVPDRFSGSKSGTSASLAISGLRSEDEADYYCSAWDDSLSGVVFGGGTKLTVLGGGGSGGGGSGGGGSGVECPPCPAPPVAGPSVFLFPPKPKDTLMISRTPEVTCVVVGVSHEDPEVKFNWYVDGVEVHNAKTKPREEQYNSTYRVVSVLTVLHQDWLNGKEYKCKVSNKQLPSPIEKTISKAKGQPREPQVYTLPPCRDELTKNQVSLWCLVKGFYPSDIAVEWESNGQPENNYKTTPPVLDSDGSFFLYSKLTVDKSRWQQGNVFSCSVMHEALHNHYTQKSLSLSPGK
chain 2: EVQLLESGGGLVQPGGSLRLSCAASGFTFSSYGMHWVRQAPGKGLEWVAVISYDGSYKYYADSVKGRFTISRDNSKNTLYLQMNSLRAEDTAVYYCAAGVPDYWGQGTLVTVSSGGGGSGGGGSGGGGSQSVLTQPPSASGTPGQRVTISCSGSSSNIGSDYDVHWYQQLPGTAPKLLIYSNEERPSGVPDRFSGSKSGTSASLAISGLRSEDEADYYCSAWDSSLSGPVFGGGTKLTVLGGGGSGGGGSGGGGSGVECPPCPAPPVAGPSVFLFPPKPKDTLMISRTPEVTCVVVGVSHEDPEVKFNWYVDGVEVHNAKTKPREEQYNSTYRVVSVLTVLHQDWLNGKEYKCKVSNKQLPSPIEKTISKAKGQPREPQVCTLPPSRDELTKNQVSLSCAVKGFYPSDIAVEWESNGQPENNYKTTPPVLDSDGSFFLVSKLTVDKSRWQQGNVFSCSVMHEALHNHYTQKSLSLSPGK
notes: scFv-kih-hIgG1 with Fc-silencing mutations; bispecific comprising CDRs of TPP-29528 and TPP-29519
IC50 (murine IL-11 [1]): 1.4 nM

B2: TPP-18068 (antibody, mouse IgG1)
heavy: EVQLLESGGGLVQPGGSLRLSCAASGFTFSSYGMHWVRQAPGKGLEWVSVISYDGSYKYYADSVKGRFTISRDNSKNTLYLQMNSLRAEDTAVYYCAAGVPDYWGQGTLVTVSSAKTTPPSVYPLAPGSAAQTNSMVTLGCLVKGYFPEPVTVTWNSGSLSSGVHTFPAVLQSDLYTLSSSVTVPSSTWPSETVTCNVAHPASSTKVDKKIVPRDCGCKPCICTVPEVSSVFIFPPKPKDVLTITLTPKVTCVVVDISKDDPEVQFSWFVDDVEVHTAQTQPREEQFNSTFRSVSELPIMHQDWLNGKEFKCRVNSAAFPAPIEKTISKTKGRPKAPQVYTIPPPKEQMAKDKVSLTCMITDFFPEDITVEWQWNGQPAENYKNTQPIMDTDGSYFVYSKLNVQKSNWEAGNTFTCSVLHEGLHNHHTEKSLSHSPGK
light: QSVLTQPPSASGTPGQRVTISCTGSSSNIGAGYDVHWYQQLPGTAPKLLIYSNNERPSGVPDRFSGSKSGTSASLAISGLRSEDEADYYCAAWDDSLNGPVFGGGTKLTVLGQPKSSPSVTLFPPSSEELETNKATLVCTITDFYPGVVTVDWKVDGTPVTQGMETTQPSKQSNNKYMASSYLTLTARAWERHSSYSCQVTHEGHTVEKSLSRADCS
notes: mIgG1, Lambda
IC50 (human IL-11): 12 nM

B3: TPP-18068 (antibody, mouse IgG1)
heavy: B2 heavy
light: B2 light
notes: mIgG1, Lambda
Kd (cynomolgus IL-11): 3.8 nM | Kd (rat IL-11): 0.29 nM | Kd (murine IL-11 [2]): 0.35 nM
